We go through one molecule from paper PMC9575183 (Developmental cell, 2020).

This assay deals with T1, Recombinant GST-RILP wt, full length (human, UniProt Q96NA2 1-401).
T1 sequence (looked up): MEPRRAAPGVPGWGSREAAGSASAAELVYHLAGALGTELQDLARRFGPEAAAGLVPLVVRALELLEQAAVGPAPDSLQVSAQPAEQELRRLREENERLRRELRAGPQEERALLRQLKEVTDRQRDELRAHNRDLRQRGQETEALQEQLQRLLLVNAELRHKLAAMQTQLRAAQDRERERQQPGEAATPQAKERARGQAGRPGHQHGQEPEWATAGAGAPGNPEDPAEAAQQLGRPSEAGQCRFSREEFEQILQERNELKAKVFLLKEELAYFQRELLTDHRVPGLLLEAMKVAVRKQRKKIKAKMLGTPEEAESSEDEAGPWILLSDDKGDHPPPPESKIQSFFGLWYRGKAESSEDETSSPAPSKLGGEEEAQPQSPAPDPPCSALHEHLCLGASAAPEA
Kind of assay: pull-down.

B1: Recombinant human His-tagged ATG5 (natural protein, UniProt Q9H1Y0 1-275, looked up)
chain: MTDDKDVLRDVWFGRIPTCFTLYQDEITEREAEPYYLLLPRVSYLTLVTDKVKKHFQKVMRQEDISEIWFEYEGTPLKWHYPIGLLFDLLASSSALPWNITVHFKSFPEKDLLHCPSKDAIEAHFMSCMKEADALKHKSQVINEMQKKDHKQLWMGLQNDRFDQFWAINRKLMEYPAEENGFRYIPFRIYQTTTERPFIQKLFRPVAADGQLHTLGDLLKEVCPSAIDPEDGEKKNQVMIHGIEPMLETPLQWLSEHLSYPDNFLHISIIPQPTD
As for B1, the binding result is listed as “binds”.
